Substitutions are numbered along the chain they refer to. In names and notes the source's numbering stands. Where two headings read alike, the source gives them in different places.
Assays:
[1] = target: T1, recombinant human IL-8, (ser-IL-8)72 (human, UniProt P10145); test: inhibition of 125I-IL-8 binding to human neutrophils
[2] = target: T1, recombinant human IL-8, (ser-IL-8)72; test: as above; remark: listed apart in the source
[3] = target: T1, recombinant human IL-8, (ser-IL-8)72; test: 125I-IL-8 neutrophil competition; against F(ab)-1
[4] = target: IL-8 binding to IL-8 receptors on human neutrophils (Homo sapiens, UniProt P10145); test: inhibition of 125I-IL-8 binding to human neutrophils (competition binding assay); conditions: for IC50: humanized 6G425 variants, Table 4, read-out: IC50 Mean (concentration of variant necessary to inhibit binding of iodinated IL8 to human neutrophils)
IL-8 = IL-8 (Homo sapiens, UniProt P10145); test: human (wild type) IL-8 mediated neutrophil chemotaxis; assay type: cell-based
Method: Human neutrophils were isolated, counted and resuspended at 5×10^6 cells/ml in Hank's balanced salt solution (abbreviated HBSS; without calcium and magnesium) with 0.1% bovine serum albumin. The neutrophils were labeled by adding calcein AM (Molecular Probe, Eugene, Oreg.) at a final concentration of 2.0 μM. Following a 30 minute incubation at 37° C., cells were washed twice with HBSS-BSA and resuspended at 5×10^6 cells/ml.
Chemotaxis experiments were carried out in a Neuro Probe (Cabin John, Md.) 96-well chamber, model MBB96. […] 100 μl of the calcein AM-labeled neutrophils were added to the upper chambers and allowed to migrate through a 5 micrometer porosity PVP free polycarbonate framed filter (Neuro Probe Inc.) toward the bottom chamber sample. The chemotaxis apparatus was then incubated for 40 to 60 minutes at 37° C. with 5% CO2. At the end of the incubation, neutrophils remaining in the upper chamber were aspirated and upper chambers were washed three times with PBS. Then the polycarbonate filter was removed, non-migrating cells were wiped off with a squeegee wetted with PBS, and the filter was air dried for 15 minutes.
The relative number of neutrophils migrating through the filter (Neutrophil migration index) was determined by measuring fluorescence intensity of the filter and the fluorescence intensity of the contents of the lower chamber and adding the two values together. Fluorescence intensity was measured with a CytoFluor 2300 fluorescent plate reader (Millipore Corp. Bedford, Mass.) configured to read a Corning 96-well plate using the 485-20 nm excitation filter and a 530-25 emission filter, with the sensitivity set at 3.
The affinity matured Fab variant, 6G4V11N35E, was tested for its ability to inhibit IL-8 mediated neutrophil chemotaxis as described in Section (B)(2) above. The reuseable 96-well chemotaxis chamber described in Section (B)(2) was replaced with endotoxin-free disposable chemotaxis chambers containing 5-micron PVP-free polycarbonate filters (ChemoTx101-5, Neuro Probe, Inc. Cabin John, Md.).

[5] = target: human monomeric IL-8 (human)
[6] = target: T1, recombinant human IL-8, (ser-IL-8)72
rhesus IL-8 = rhesus IL-8 (rhesus, UniProt P67813); test: cell-based or functional assay
[7] = target: T1, recombinant human IL-8, (ser-IL-8)72; test: competition phage ELISA (K64C IL-8 coated, free IL-8)
Text: The first step of the assay requires that the concentrations of the phage carrying the wild type and mutated antibodies be normalized, allowing a comparison of the relative affinities of each antibody.

[8] = target: human monomeric IL-8 (human); remark: listed apart in the source
[9] = target: T1, recombinant human IL-8, (ser-IL-8)72; remark: listed apart in the source
rabbit IL-8 = target: T2, rabbit IL-8 (rabbit, UniProt P19874); test: cell-based or functional assay
T2 sequence: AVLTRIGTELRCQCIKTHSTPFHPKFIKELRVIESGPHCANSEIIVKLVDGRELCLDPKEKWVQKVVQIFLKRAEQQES

[10] = target: T1, recombinant human IL-8, (ser-IL-8)72; test: competitive binding RIP, Scatchard
[11] = target: T1, recombinant human IL-8, (ser-IL-8)72; remark: listed apart in the source

Q: rhu4D5 F(ab) (Fab) was tested. Which IC50 [1] did it give?
A: > 200000 nM

B1: humanized 6G425 F(ab)-2 (Fab, V domains shown)
VH: EVQLVESGGGLVQPGGSLRLSCAASGYSFSSHYMHWVRQAPGKGLEWVGYIDPSNGETTYNQKFKGRATISRDNSKNTLYLQMNSLRAEDTAVYYCAARGDYRYNGDWFFDVWGQGT
VL: DIQMTQSPSSLSASVGDRVTITCRSSQSLVHGIGNTYLHWYQQKPGKAPKLLIYYKVSNRFSGVPSRFSGSGSGTDFTLTISSLQPEDFATYYCSQSTHVPLTFGQGTKVEIKR
Q: With B1 as the molecule, how does the IC50 [2] read?
A: 106 nM

Q: And the “fold decrease in IL-8 binding” value [3]?
A: < 2 fold

B2: humanized 6G425 F(ab)-3 (Fab, V domains shown)
VH: B1 VH with A68F, R72V
VL: B1 VL
Q: For B2, which IC50 [2] is on record?
A: 79.8 nM

Q: And the “fold decrease in IL-8 binding” value [3]?
A: < 2 fold

B3: F(ab)-7: humanized variant, F(ab)-6 with LeuH80Val (antibody, V domains shown)
VL: B1 VL
VH: B1 VH with A68F, I70L, L79A, L81V
Q: For B3, which IC50 [4] is on record?
A: 38.4 nM

B4: F(ab)-6: humanized variant, F(ab)-1 with IleH69Leu and LeuH78Ala (antibody, V domains shown)
VL: B1 VL
VH: B1 VH with A68F, I70L, L79A
Q: How did the “increase in affinity for IL-8” value ([4]; compared to F(ab)-1) turn out when B4 was run?
A: approximately 2 fold

Q: And the IC50 [4]?
A: 34.6 nM

B5: F(ab)-8: humanized variant, F(ab)-6 with ArgH38Lys (protein)
light: DIQMTQSPSSLSASVGDRVTITCRSSQSLVHGIGNTYLHWYQQKPGKAPKLLIYKVSNRFSGVPSRFSGSGSGTDFTLTISSLQPEDFATYYCSQSTHVPLTFGQGTKVEIKRTVAAPSVFIFPPSDEQLKSGTASVVCLLNNFYPREAKVQWKVDNALQSGNSQESVTEQDSKDSTYSLSSTLTLSKADYEKHKVYACEVTHQGLSSPVTKSFNRGEC
heavy: EVQLVESGGGLVQPGGSLRLSCAASGYSFSSHYMHWVKQAPGKGLEWVGYIDPSNGETTYNQKFKGRFTLSRDNSKNTAYLQMNSLRAEDTAVYYCARGDYRYNGDWFFDVWGQGTLVTVSSASTKGPSVFPLAPSSKSTSGGTAALGCLVKDYFPEPVTVSWNSGALTSGVHTFPAVLQSSGLYSLSSVVTVPSSSLGTQTYICNVNHKPSNTKVDKKVEPKSCDKTHT
Q: How did the IC50 (IL-8; read-out: IC50, human wild type IL-8 mediated neutrophil chemotaxis) turn out when B5 was run?
A: 12 nM

B6: 6G4V11N35E Fab: affinity matured variant of humanized 6G4V11 Fab with Glu at position 35 of CDR-L1 (protein)
light: B5 light with N35E
heavy: B5 heavy with E6Q, K38R
Q: Which results are given for B6?
A: IC50 (IL-8; 2 nM IL-8, disposable chemotaxis chambers, read-out: IC50, human IL-8 mediated neutrophil chemotaxis): ~1.2 nM; inhibition of chemotaxis at 3.7 nM-33 nM (IL-8; 2 nM stimulus of rabbit or human IL-8, compared with buffer control): could completely inhibit this response

B7: humanized 6G425 F(ab)-9 (Fab, V domains shown)
VH: EVQLVQSGGGLVQPGGSLRLSCAASGYSFSSHYMHWVRQAPGKGLEWVGYIDPSNGETTYNQKFKGRFTLSRDNSKNTAYLQMNSLRAEDTAVYYCARGDYRYNGDWFFDVWGQGTLVTVSS
VL: DIQMTQSPSSLSASVGDRVTITCRSSQSLVHGIGNTYLHWYQQKPGKAPKLLIYKVSNRFSGVPSRFSGSGSGTDFTLTISSLQPEDFATYYCSQSTHVPLTFGQGTKVEIKR
Q: How did the IC50, IL-8 mediated neutrophil chemotaxis [5] turn out when B7 was run?
A: 15 nM

Q: What about the IC50, IL-8 mediated neutrophil chemotaxis [6] of the same molecule?
A: 12 nM

Q: And the “IC50, IL-8 mediated neutrophil chemotaxis” value (rhesus IL-8)?
A: ~22 nM

B8: h6G4V11 alanine mutant Y37A (CDR-L1) (Fab, V domains shown)
VH: B7 VH
VL: B7 VL with Y37A
Q: Does B8 bind [7]?
A: no binding

B9: 6G4V11N35A F(ab')2 leucine zipper (antibody, V domains shown)
VH: B7 VH
VL: B7 VL with N35A
Q: Which IC50, IL-8 mediated neutrophil chemotaxis [8] does the source give for B9 here?
A: 1 nM

Q: And the IC50, human IL-8 mediated neutrophil chemotaxis [9]?
A: 1.5 nM

Q: And the “IC50, IL-8 mediated neutrophil chemotaxis” value (rabbit IL-8)?
A: 4 nM

B10: humanized 6G425 F(ab)-8 (Fab, V domains shown)
VH: B7 VH with Q6E, R38K
VL: B7 VL
Q: How did the “IC50, IL-8 mediated neutrophil chemotaxis” value (rhesus IL-8) turn out when B10 was run?
A: 10 nM

B11: h6G4V11 alanine mutant H98A (CDR-L3) (Fab, V domains shown)
VH: B7 VH
VL: B7 VL with H98A
Q: B11 was tested. Which IC50 [7] did it give?
A: 8 nM

B12: monoclonal antibody 5.12.14 (antibody, V domains shown)
VH: EVQLVESGGGLVPPGGSLKLSCAASGFIFSSYGMSWVRQTPGKSLELVATINNNGDSTYYPDSVKGRFTISRDNAKNTLYLQMSSLKSEDTAMFYCARALISSATWFGYWGQGTLVTVSA
VL: DIVMTQSQKFMSTSVGDRVSVTCKASQNVGTNVAWYQQKPGQSPKALIYSSSYRYSGVPDRFTGSGSGTDFTLTISHVQSEDLADYFCQQYNIYPLTFGPGTKLELKR
Q: For B12, which Kd [10] is on record?
A: 0.3 nM

Q: What about the neutrophil chemotaxis induced by IL-8 (Boyden chamber) [11] of the same molecule?
A: 70%

B13: 5.12.14 Fab: recombinant human-murine chimeric Fab of 5.12.14 (protein)
light: DIVMTQSQKFMSTSVGDRVSVTCKASQNVGTNVAWYQQKPGQSPKALIYSSSYRYSGVPDRFTGSGSGTDFTLTISHVQSEDLADYFCQQYNIYPLTFGPGTKLELRRAVAAPSVFIFPPSDEQLKSGTASVVCLLNNFYPREAKVQWKVDNALQSGNSQESVTEQDSKDSTYSLSSTLTLSKADYEKHKVYACEVTHQGLSSPVTKSFNRGEC
heavy: EVQLVESGGGLVPPGGSLKLSCAASGFIFSSYGMSWVRQTPGKSLELVATINNNGDSTYYPDSVKGRFTISRDNAKNTLYLQMSSLKSEDTAMFYCARALISSATWFGYWGQGTLVTVSAASTKGPSVFPLAPSSKSTSGGTAALGCLVKDYFPEPVTVSWNSGALTSGVHTFPAVLQSSGLYSLSSVVTVPSSSLGTQTYICNVNHKPSNTKVDKKVEPKSCDKTHT
Q: With B13 as the molecule, how does the “inhibition of human IL-8 mediated neutrophil chemotaxis / migration” value (IL-8) read?
A: demonstrates the inhibition of human IL-8 mediated neutrophil chemotaxis

B14: 6G4.2.5 Fab: recombinant human-murine chimeric Fab of 6G4.2.5 (protein)
light: DIVMTQTPLSLPVSLGDQASISCRSSQSLVHGIGNTYLHWYLQKPGQSPKLLIYKVSNRFSGVPDRFSGSGSGTDFTLRISRVEAEDLGLYFCSQSTHVPLTFGAGTKLELKRAVAAPTVFIFPPSSEQLKSGTASVVCLLNNFYPREAKVQWKVDNALQSGNSQESVTEQDSKDSTYSLSSTLTLSKADYEKHKVYACEVTHQGLSSPVTKSFNRGEC
heavy: EIQLQQSGPELMKPGASVKISCKASGYSFSSHYMHWVKQSHGKSLEWIGYIDPSNGETTYNQKFKGKATLTVDTSSSTANVHLSSLTSDDSAVYFCARGDYRYNGDWFFDVWGAGTTVTVSSASTKGPSVFPLAPSSKSTSGGTAALGCLVKDYFPEPVTVSWNSGALTSGVHTFPAVLQSSGLYSLSSVVTVPSSSLGTQTYICNVNHKPSNTKVDKKVEPKSCDKTHT
Q: Which “inhibition of human IL-8 mediated neutrophil chemotaxis / migration” value (IL-8) does the source give for B14 here?
A: demonstrates the inhibition of human IL-8 mediated neutrophil chemotaxis
